Test results from patent US20160297851A1, “BROAD SPECTRUM […]” (priority 2012, published 2016).

Columns and labels:
[1] = molecular target: P. aeruginosa PAO1 SPase (LepB) P84L, in the bacteria (P. aeruginosa), Q9I5G7; test: cell-based or functional assay
[2] = molecular target: E. coli SPase with each of the other 19 amino acids at residue 84, in mutant strains of E. coli; test: cell-based or functional assay

B1: arylomycin C16 (peptide)
peptide: SAGXAY
modifications: here or on the partner: C16 fatty acyl (palmitoyl) tail on the N-terminus of N-methyl-D-Ser2; D-Ala3; N-methyl-4-hydroxyphenylglycine (MeHpg) at 5, written X; biaryl bridge between MeHpg5 and Tyr7 (macrocycle MeHpg5-Ala6-Tyr7); free C-terminal carboxyl; the filing counts the lipid tail as position 1
Question: Which MIC [1] does the source give for B1 here?
Answer: 8 µg/mL

Question: And the MIC [2]?
Answer: < 16 µg/mL
